Experimental data from patent publication US20060252118.

Legend:
[1] = target: Tyrosine (Tyr) phosphorylated Myelin Basic Protein substrate (33P labeled)
[2] = target: T1, Peptide 3 (phosphotyrosine peptide) H-Glu-Trp-Met-Arg-Glu-Asn-Ala-Glu-pTyr-Leu-Arg-Val-Ala-OH
T1 chain: EWMRENAEYLRVA

[3] = target: T2, Peptide 2 (phosphothreonine peptide) H-Thr-Ala-Asp-Ser-Gln-His-Ser-pThr-Pro-Pro-Lys-Lys-Lys-Arg-Lys-Val-Glu-OH
T2 chain: TADSQHSTPPKKKRKVE

[4] = target: Serine/threonine (Ser/Thr) phosphorylated Myelin Basic Protein substrate (33P labeled)
Chain of Serine/threonine (Ser/Thr) phosphorylated Myelin Basic Protein substrate (33P labeled) (P02687 whole entry): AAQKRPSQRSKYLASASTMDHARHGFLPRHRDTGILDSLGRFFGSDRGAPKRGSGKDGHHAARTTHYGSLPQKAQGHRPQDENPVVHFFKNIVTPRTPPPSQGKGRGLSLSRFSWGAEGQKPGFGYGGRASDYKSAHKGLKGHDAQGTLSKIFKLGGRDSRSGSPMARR

[5] = target: T3, Peptide 1 (phosphoserine peptide) H-Val-Pro-Ile-Pro-Gly-Arg-Phe-Asp-Arg-Arg-Val-pSer-Val-Ala-Ala-Glu-NH2
T3 chain: VPIPGRFDRRVSVAAE

Chain of Tyrosine (Tyr) phosphorylated Myelin Basic Protein substrate (33P labeled) (P02687 whole entry): as above

B1: thermolabile Antarctic phosphatase (TAP), truncated, with N-terminal His-tag (expressed from pEGTAP7.4.1) (protein)
chain: MHHHHHHMKLKKIVFTLIALGLFSCKTTSVLVKNEPQLKTPKNVILLISDGAGLSQISSTFYFKEGTPNYTQFKNIGLIKTSSSREDVTDSASGATAFSCGIKTYNAAIGVADDSTAVKSIVEIAALNNIKTGVVATSSITHATPASFYAHALNRGLEEEIAMDMTESDLDFFAGGGLNYFTKRKDKKDVLAILKGNQFTINTTGLTDFSSIASNRKMGFLLADEAMPTMEKGRGNFLSAATDLAIQFLSKDNSAFFIMSEGSQIDWGGHANNASYLISEINDFDDAIGTALAFAKKDGNTLVIVTSDHETGGFTLAAKKNKREDGSEYSDYTEIGPTFSTGGHSATLIPVFAYGPGSEEFIGIYENNEIFHKILKVTKWNQ
specific activity (release of 33P from phosphorylated MyBP, TCA-soluble counts) [1]: also greater than the specific activity for CIAP
units of enzyme required to remove all the phosphates from 5 µg of the peptide in 10 mins (Cap-HPLC) [2]: only 0.02 units of enzyme being required to remove all the phosphates from 5 µg of the peptide in 10 mins
units of TAP required to completely remove the phosphates from 5 µg of the peptide in 10 mins (Cap-HPLC) [3]: 2.5 units and 10 units of TAP were required to completely remove the phosphates from the phospho-serine and phospho-threonine peptides respectively
specific activity (release of 33P from phosphorylated MyBP, TCA-soluble counts) [4]: 1910 nmol/min/mg
units of TAP required to completely remove the phosphates from 5 µg of the peptide in 10 mins (Cap-HPLC) [5]: 2.5 units and 10 units of TAP were required to completely remove the phosphates from the phospho-serine and phospho-threonine peptides respectively
